Assay results: US8642555B2, “Prodrugs” (KTB Tumorforschungsgesellschaft mbH, priority 2009, dated 2014)
Numbered stars: 1 amine (or outer) side, 2 acyl side, 3 side chain; on linkers, the order of the positions; unused ones are H or OH. Square brackets hold non-standard residues; d marks the D form. Peptide text beside a SMILES is read from it. * marks the point of attachment. ξ: configuration not given here. X1 = COc1cccc2c1C(=O)c1c(O)c3c(c(O)c1C2=O)C[C@@](O)(C(=O)CO)CC3O[C@H]1C[C@@H](N*)C(O)[C@H](C)O1; Hexanoyl(6-maleimido) = O=C1C=CC(=O)N1CCCCCC(=O)*; PABC = O=C(OCc1ccc(N[*:1])cc1)[*:2]; ξY = NC(Cc1ccc(O)cc1)C(=O)O; ξR = N=C(N)NCCCC(N)C(=O)O; ξL = CC(C)CC(N)C(=O)O; ξS = NC(CO)C(=O)O

Experiments:
[1] = cited from earlier work
[2] = in vivo; cited from earlier work

Compound	water-solubility (Water-solubility)	further results
COc1cccc2c1C(=O)c1c(O)c3c(c(O)c1C2=O)CC(O)(C(=O)CO)CC3OC1CC(NC(=O)C(CCCNC(=N)N)NC(=O)C(N)CO)C(O)C(C)O1 (stereo not drawn) [Ser-Arg-DOXO]	–	half-life of liberation of free doxorubicin from the dipeptide [1]: > 48 h
CC(=O)O[C@H]1C(=O)[C@@]2(C)C([C@H](OC(=O)c3ccccc3)[C@]3(O)C[C@H](OC(=O)[C@H](OC(=O)OCc4ccc(NC(=O)C(CC(C)C)NC(=O)C(CO)NC(=O)C(Cc5ccc(O)cc5)NC(=O)C(Cc5ccc(O)cc5)NC(=O)C(CO)NC(=O)C(CO)NC(=O)C(CCCNC(=N)N)NC(=O)CCCCCN5C(=O)C=CC5=O)cc4)[C@@H](NC(=O)c4ccccc4)c4ccccc4)C(C)=C1C3(C)C)[C@]1(OC(C)=O)CO[C@@H]1C[C@@H]2O (stereo partly drawn) [compound 10, EMC-Arg-Ser-Ser-Tyr-Tyr-Ser-Leu-PABC-Paclitaxel]	excellent water-solubility	–
albumin	–	half-life in the systemic circulation [2]: up to 19 days
COc1cccc2c1C(=O)c1c(O)c3c(c(O)c1C2=O)C[C@@](O)(C(=O)CO)CC3O[C@H]1C[C@@H](NC(=O)OCc2ccc(NC(=O)C(CC(C)C)NC(=O)C(CO)NC(=O)C(Cc3ccc(O)cc3)NC(=O)C(Cc3ccc(O)cc3)NC(=O)C(CO)NC(=O)C(CO)NC(=O)C(CCCNC(=N)N)NC(=O)CCCCCN3C(=O)C=CC3=O)cc2)C(O)[C@H](C)O1 (stereo partly drawn) [compound 6, EMC-Arg-Ser-Ser-Tyr-Tyr-Ser-Leu-PABC-DOXO] ({Hexanoyl(6-maleimido)}-[ξR][ξS][ξS][ξY][ξY][ξS][ξL][PABC]-X1)	excellent water-solubility	–
